Assay results as given in patent US20240261333A1, “NOVEL TARGETS FOR ENHANCING ANTI-TUMOR IMMUNITY” (THE BROAD INSTITUTE, INC., priority 2021, published 2024).

T1: B3GNT2 (Homo sapiens, UniProt Q9NY97)
T1 construct: The respective ORFs of candidate genes [CD274 (NM_014143), MCL1 (NM_021960), JUNB (NM_002229), and B3GNT2 (NM_006577)] were synthesized; expressed in transfected cells; host or cells: A375 melanoma cells (lentiviral ORF overexpression)
T1 sequence (Q9NY97 1-397): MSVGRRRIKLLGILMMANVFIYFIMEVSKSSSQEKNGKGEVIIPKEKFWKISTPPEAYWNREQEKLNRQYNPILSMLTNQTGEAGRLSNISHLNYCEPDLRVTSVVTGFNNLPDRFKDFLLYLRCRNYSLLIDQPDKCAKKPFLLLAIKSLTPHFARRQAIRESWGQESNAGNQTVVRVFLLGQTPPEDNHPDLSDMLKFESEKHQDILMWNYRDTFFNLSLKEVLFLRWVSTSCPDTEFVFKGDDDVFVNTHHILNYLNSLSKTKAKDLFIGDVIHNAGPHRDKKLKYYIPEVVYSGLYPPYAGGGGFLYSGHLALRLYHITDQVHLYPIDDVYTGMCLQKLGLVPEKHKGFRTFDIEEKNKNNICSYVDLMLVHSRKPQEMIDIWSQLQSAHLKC


Target: T1, B3GNT2
Test: Co-IP of FLAG-tagged B3GNT2 followed by mass spectrometry
Type: cell-based
Parameters: C-term IgG / C-term flag: unit not given here
Details: mass spectrometry count, unit not given; for C-term flag / N-term FLAG: Co-IP with FLAG antibody; for C-term flag / C-term IgG: C-terminally FLAG-tagged B3GNT2; for N-term FLAG / N-term IgG: N-terminally FLAG-tagged B3GNT2; for C-term IgG / N-term IgG: Co-IP with IgG control antibody
How it was run: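 FLAG-tagged B3GNT2 immunoprecipitated from cell lysate (HEPES, 1% Triton X-100, 150 mM NaCl) with anti-FLAG versus […], overnight at 4° C, then captured on Protein A/G magnetic beads for 4 h. Two biological replicates per condition. Peptides fractionated and analyzed by nano-LC on an Orbitrap Elite in data-dependent mode.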

Molecule | C-term flag | N-term FLAG | C-term IgG | N-term IgG
KTN1 (protein) MEFYESAYFIVLIPSIVITVIFLFFWLFMKETLYDEVLAKQKREQKLIPTKTDKKKAEKKKNKKKEIQNGNLHESDSESVPRDFKLSDALAVEDDQVAPVPLNVVETSSSVRERKKKEKKQKPVLEEQVIKESDASKIPGKKVEPVPVTKQPTPPSEAAASKKKPGQKKSKNGSDDQDKKVETLMVPSKRQEALPLHQETKQESGSGKKKASSKKQKTENVFVDEPLIHATTYIPLMDNADSSPVVDKREVIDLLKPDQVEGIQKSGTKKLKTETDKENAEVKFKDFLLSLKTMMFSEDEALCVVDLLKEKSGVIQDALKKSSKGELTTLIHQLQEKDKLLAAVKEDAAATKDRCKQLTQEMMTEKERSNVVITRMKDRIGTLEKEHNVFQNKIHVSYQETQQMQMKFQQVREQMEAEIAHLKQENGILRDAVSNTTNQLESKQSAELNKLRQDYARLVNELTEKTGKLQQEEVQKKNAEQAATQLKVQLQEAERRWEEVQSYIRKRTAEHEAAQQDLQSKFVAKENEVQSLHSKLTDTLVSKQQLEQRLMQLMESEQKRVNKEESLQMQVQDILEQNEALKAQIQQFHSQIAAQTSASVLAEELHKVIAEKDKQIKQTEDSLASERDRLTSKEEELKDIQNMNFLLKAEVQKLQALANEQAAAAHELEKMQQSVYVKDDKIRLLEEQLQHEISNKMEEFKILNDQNKALKSEVQKLQTLVSEQPNKDVVEQMEKCIQEKDEKLKTVEELLETGLIQVATKEEELNAIRTENSSLTKEVQDLKAKQNDQVSFASLVEELKKVIHEKDGKIKSVEELLEAELLKVANKEKTVQDLKQEIKALKEEIGNVQLEKAQQLSITSKVQELQNLLKGKEEQMNTMKAVLEEKEKDLANTGKWLQDLQEENESLKAHVQEVAQHNLKEASSASQFEELEIVLKEKENELKRLEAMLKERESDLSSKTQLLQDVQDENKLFKSQIEQLKQQNYQQASSFPPHEELLKVISEREKEISGLWNELDSLKDAVEHQRKKNNDLREKNWEAMEALASTEKMLQDKVNKTSKERQQQVEAVELEAKEVLKKLFPKVSVPSNLSYGEWLHGFEKKAKECMAGTSGSEEVKVLEHKLKEADEMHTLLQLECEKYKSVLAETEGILQKLQRSVEQEENKWKVKVDESHKTIKQMQSSFTSSEQELERLRSENKDIENLRREREHLEMELEKAEMERSTYVTEVRELKDLLTELQKKLDDSYSEAVRQNEELNLLKAQLNETLTKLRTEQNERQKVAGDLHKAQQSLELIQSKIVKAAGDTTVIENSDVSPETESSEKETMSVSLNQTVTQLQQLLQAVNQQLTKEKEHYQVLE | 2 | 0 | 0 | 0
PDIA4 (protein) VAGAEGPDEDSSNRENAIEDEEEEEEEDDDEEEDDLEVKEENGVLVLNDANFDNFVADKDTVLLEFYAPWCGHCKQFAPEYEKIANILKDKDPPIPVAKIDATSASVLASRFDVSGYPTIKILKKGQAVDYEGSRTQEEIVAKVREVSQPDWTPPPEVTLVLTKENFDEVVNDADIILVEFYAPWCGHCKKLAPEYEKAAKELSKRSPPIPLAKVDATAETDLAKRFDVSGYPTLKIFRKGRPYDYNGPREKYGIVDYMIEQSGPPSKEILTLKQVQEFLKDGDDVIIIGVFKGESDPAYQQYQDAANNLREDYKFHHTFSTEIAKFLKVSQGQLVVMQPEKFQSKYEPRSHMMDVQGSTQDSAIKDFVLKYALPLVGHRKVSNDAKRYTRRPLVVVYYSVDFSFDYRAATQFWRSKVLEVAKDFPEYTFAIADEEDYAGEVKDLGLSESGEDVNAAILDESGKKFAMEPEEFDSDTLREFVTAFKKGKLKPVIKSQPVPKNNKGPVKVVVGKTFDSIVMDPKKDVLIEFYAPWCGHCKQLEPVYNSLAKKYKGQKGLVIAKMDATANDVPSDRYKVEGFPTIYFAPSGDKKNPVKFEGGDRDLEHLSKFIEEHATKLSRTKEEL | 9 | 0 | 0 | 0

Second part, the molecule after the results:

C-term flag | N-term FLAG | C-term IgG | N-term IgG | Molecule
16 | 2 | 2 | 0 | RRBP1 (protein) MDIYDTQTLGVVVFGGFMVVSAIGIFLVSTFSMKETSYEEALANQRKEMAKTHHQKVEKKKKEKTVEKKGKTKKKEEKPNGKIPDHDPAPNVTVLLREPVRAPAVAVAPTPVQPPIIVAPVATVPAMPQEKLASSPKDKKKKEKKVAKVEPAVSSVVNSIQVLTSKAAILETAPKEVPMVVVPPVGAKGNTPATGTTQGKKAEGTQNQSKKAEGAPNQGRKAEGTPNQGKKTEGTPNQGKKAEGTPNQGKKAEGTPNQGKKAEGAQNQGKKVDTTPNQGKKVEGAPTQGRKAEGAQNQAKKVEGAQNQGKKAEGAQNQGKKGEGAQNQGKKAEGAQNQGKKAEGAQNQGKKAEGAQNQGKKAEGAQNQGKKAEGAQNQGKKAEGAQNQGKKVEGAQNQGKKAEGAQNQGKKAEGAQNQGKKAEGAQNQGKKAEGAQNQGKKAEGAQNQGKKAEGAQNQGKKAEGAQNQGKKVEGAQNQGKKAEGAQNQGKKAEGAQNQGKKAEGAQNQGQKGEGAQNQGKKTEGAQGKKAERSPNQGKKGEGAPIQGKKADSVANQGTKVEGITNQGKKAEGSPSEGKKAEGSPNQGKKADAAANQGKKTESASVQGRNTDVAQSPEAPKQEAPAKKKSGSKKKGEPGPPDADGPLYLPYKTLVSTVGSMVFNEGEAQRLIEILSEKAGIIQDTWHKATQKGDPVAILKRQLEEKEKLLATEQEDAAVAKSKLRELNKEMAAEKAKAAAGEAKVKKQLVAREQEITAVQARMQASYREHVKEVQQLQGKIRTLQEQLENGPNTQLARLQQENSILRDALNQATSQVESKQNAELAKLRQELSKVSKELVEKSEAVRQDEQQRKALEAKAAAFEKQVLQLQASHRESEEALQKRLDEVSRELCHTQSSHASLRADAEKAQEQQQQMAELHSKLQSSEAEVRSKCEELSGLHGQLQEARAENSQLTERIRSIEALLEAGQARDAQDVQASQAEADQQQTRLKELESQVSGLEKEAIELREAVEQQKVKNNDLREKNWKAMEALATAEQACKEKLLSLTQAKEESEKQLCLIEAQTMEALLALLPELSVLAQQNYTEWLQDLKEKGPTLLKHPPAPAEPSSDLASKLREAEETQSTLQAECDQYRSILAETEGMLRDLQKSVEEEEQVWRAKVGAAEEELQKSRVTVKHLEEIVEKLKGELESSDQVREHTSHLEAELEKHMAAASAECQNYAKEVAGLRQLLLESQSQLDAAKSEAQKQSDELALVRQQLSEMKSHVEDGDIAGAPASSPEAPPAEQDPVQLKTQLEWTEAILEDEQTQRQKLTAEFEEAQTSACRLQEELEKLRTAGPLESSETEEASQLKERLEKEKKLTSDLGRAATRLQELLKTTQEQLAREKDTVKKLQEQLEKAEDGSSSKEGTSV
2 | 0 | 0 | 0 | UBTF (protein) MNGEADCPTDLEMAAPKGQDRWSQEDMLTLLECMKNNLPSNDSSKFKTTESHMDWEKVAFKDFSGDMCKLKWVEISNEVRKFRTLTELILDAQEHVKNPYKGKKLKKHPDFPKKPLTPYFRFFMEKRAKYAKLHPEMSNLDLTKILSKKYKELPEKKKMKYIQDFQREKQEFERNLARFREDHPDLIQNAKKSDIPEKPKTPQQLWYTHEKKVYLKVRPDEIMRDYIQKHPELNISEEGITKSTLTKAERQLKDKFDGRPTKPPPNSYSLYCAELMANMKDVPSTERMVLCSQQWKLLSQKEKDAYHKKCDQKKKDYEVELLRFLESLPEEEQQRVLGEEKMLNINKKQATSPASKKPAQEGGKGGSEKPKRPVSAMFIFSEEKRRQLQEERPELSESELTRLLARMWNDLSEKKKAKYKAREAALKAQSERKPGGEREERGKLPESPKRAEEIWQQSVIGDYLARFKNDRVKALKAMEMTWNNMEKKEKLMWIKKAAEDQKRYERELSEMRAPPAATNSSKKMKFQGEPKKPPMNGYQKFSQELLSNGELNHLPLKERMVEIGSRWQRISQSQKEHYKKLAEEQQKQYKVHLDLWVKSLSPQDRAAYKEYISNKRKSMTKLRGPNPKSSRTTLQSKSESEEDDEEDEDDEDEDEEEEDDENGDSSEDGGDSSESSSEDESEDGDENEEDDEDEDDDEDDDEDEDNESEGSSSSSSSSGDSSDSDSN
